In patent publication US20140206607A1 (INDIANA UNIVERSITY RESEARCH AND TECHNOLOGY, published 2014):
Numbered stars: 1 amine (or outer) side, 2 acyl side, 3 side chain; on linkers, the order of the positions; unused ones are H or OH. Square brackets hold non-standard residues; d marks the D form. Side chains are listed from the residue outwards. Ends that are not written are not given here. * marks the point of attachment. γGlu = O=C(O)[C@H](CCC(=O)[*:2])N[*:1]; Desaminohistidyl = O=C(CCc1c[nH]cn1)*; Palmitoyl = CCCCCCCCCCCCCCCC(=O)*; Aib = CC(C)(N)C(=O)O

T1: GIP receptor (UniProt P48546 22-466)
T1 sequence (looked up): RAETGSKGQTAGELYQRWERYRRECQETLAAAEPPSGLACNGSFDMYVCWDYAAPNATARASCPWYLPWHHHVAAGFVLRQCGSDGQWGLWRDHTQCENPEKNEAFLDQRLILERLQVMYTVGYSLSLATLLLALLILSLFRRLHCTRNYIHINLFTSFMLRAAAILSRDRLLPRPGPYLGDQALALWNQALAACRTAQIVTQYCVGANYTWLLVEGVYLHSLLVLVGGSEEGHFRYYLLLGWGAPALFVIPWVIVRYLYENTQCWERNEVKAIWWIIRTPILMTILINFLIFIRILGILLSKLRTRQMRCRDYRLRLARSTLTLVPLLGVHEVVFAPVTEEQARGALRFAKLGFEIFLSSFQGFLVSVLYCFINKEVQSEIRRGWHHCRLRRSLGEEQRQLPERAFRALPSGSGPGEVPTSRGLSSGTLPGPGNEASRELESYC

B1: peptide of SEQ ID NO: 20 (peptide)
peptide: [Desaminohistidyl][dS]QGTFTSDK([γGlu-Palmitoyl])SKYLDERAAQDFVQWLLDT-NH2
SMILES: CCCCCCCCCCCCCCCC(=O)N[C@@H](CCC(=O)NCCCC[C@H](NC(=O)[C@H](CC(=O)O)NC(=O)[C@H](CO)NC(=O)[C@@H](NC(=O)[C@H](Cc1ccccc1)NC(=O)[C@@H](NC(=O)CNC(=O)[C@H](CCC(N)=O)NC(=O)[C@@H](CO)NC(=O)CCc1c[nH]cn1)[C@@H](C)O)[C@@H](C)O)C(=O)N[C@@H](CO)C(=O)N[C@@H](CCCCN)C(=O)N[C@@H](Cc1ccc(O)cc1)C(=O)N[C@@H](CC(C)C)C(=O)N[C@@H](CC(=O)O)C(=O)N[C@@H](CCC(=O)O)C(=O)N[C@@H](CCCNC(=N)N)C(=O)N[C@@H](C)C(=O)N[C@@H](C)C(=O)N[C@@H](CCC(N)=O)C(=O)N[C@@H](CC(=O)O)C(=O)N[C@@H](Cc1ccccc1)C(=O)N[C@H](C(=O)N[C@@H](CCC(N)=O)C(=O)N[C@@H](Cc1c[nH]c2ccccc12)C(=O)N[C@@H](CC(C)C)C(=O)N[C@@H](CC(C)C)C(=O)N[C@@H](CC(=O)O)C(=O)N[C@H](C(N)=O)[C@@H](C)O)C(C)C)C(=O)O
B2: peptide of SEQ ID NO: 23 (peptide)
peptide: H[Aib]QGTFTSDK([γGlu-γGlu-Palmitoyl])SKYLD[Aib]RAAQDFVQWLMKGRG-NH2
modifications: N-terminus assumed
SMILES: CCCCCCCCCCCCCCCC(=O)N[C@@H](CCC(=O)N[C@@H](CCC(=O)NCCCC[C@H](NC(=O)[C@H](CC(=O)O)NC(=O)[C@H](CO)NC(=O)[C@@H](NC(=O)[C@H](Cc1ccccc1)NC(=O)[C@@H](NC(=O)CNC(=O)[C@H](CCC(N)=O)NC(=O)C(C)(C)NC(=O)[C@@H](N)Cc1c[nH]cn1)[C@@H](C)O)[C@@H](C)O)C(=O)N[C@@H](CO)C(=O)N[C@@H](CCCCN)C(=O)N[C@@H](Cc1ccc(O)cc1)C(=O)N[C@@H](CC(C)C)C(=O)N[C@@H](CC(=O)O)C(=O)NC(C)(C)C(=O)N[C@@H](CCCNC(=N)N)C(=O)N[C@@H](C)C(=O)N[C@@H](C)C(=O)N[C@@H](CCC(N)=O)C(=O)N[C@@H](CC(=O)O)C(=O)N[C@@H](Cc1ccccc1)C(=O)N[C@H](C(=O)N[C@@H](CCC(N)=O)C(=O)N[C@@H](Cc1c[nH]c2ccccc12)C(=O)N[C@@H](CC(C)C)C(=O)N[C@@H](CCSC)C(=O)N[C@@H](CCCCN)C(=O)NCC(=O)N[C@@H](CCCNC(=N)N)C(=O)NCC(N)=O)C(C)C)C(=O)O)C(=O)O
B3: peptide of SEQ ID NO: 21 (peptide)
peptide: Ac-H[dS]QGTFTSDK([γGlu-Palmitoyl])SKYLDERAAQDFVQWLLDT-NH2
SMILES: CCCCCCCCCCCCCCCC(=O)N[C@@H](CCC(=O)NCCCC[C@H](NC(=O)[C@H](CC(=O)O)NC(=O)[C@H](CO)NC(=O)[C@@H](NC(=O)[C@H](Cc1ccccc1)NC(=O)[C@@H](NC(=O)CNC(=O)[C@H](CCC(N)=O)NC(=O)[C@@H](CO)NC(=O)[C@H](Cc1c[nH]cn1)NC(C)=O)[C@@H](C)O)[C@@H](C)O)C(=O)N[C@@H](CO)C(=O)N[C@@H](CCCCN)C(=O)N[C@@H](Cc1ccc(O)cc1)C(=O)N[C@@H](CC(C)C)C(=O)N[C@@H](CC(=O)O)C(=O)N[C@@H](CCC(=O)O)C(=O)N[C@@H](CCCNC(=N)N)C(=O)N[C@@H](C)C(=O)N[C@@H](C)C(=O)N[C@@H](CCC(N)=O)C(=O)N[C@@H](CC(=O)O)C(=O)N[C@@H](Cc1ccccc1)C(=O)N[C@H](C(=O)N[C@@H](CCC(N)=O)C(=O)N[C@@H](Cc1c[nH]c2ccccc12)C(=O)N[C@@H](CC(C)C)C(=O)N[C@@H](CC(C)C)C(=O)N[C@@H](CC(=O)O)C(=O)N[C@H](C(N)=O)[C@@H](C)O)C(C)C)C(=O)O
B4: peptide of SEQ ID NO: 24 (peptide)
peptide: H[Aib]QGTFTSDK([γGlu-γGlu-Palmitoyl])SKYLD[Aib]RAAQDFVQWLKDGRG-NH2
modifications: N-terminus assumed
SMILES: CCCCCCCCCCCCCCCC(=O)N[C@@H](CCC(=O)N[C@@H](CCC(=O)NCCCC[C@H](NC(=O)[C@H](CC(=O)O)NC(=O)[C@H](CO)NC(=O)[C@@H](NC(=O)[C@H](Cc1ccccc1)NC(=O)[C@@H](NC(=O)CNC(=O)[C@H](CCC(N)=O)NC(=O)C(C)(C)NC(=O)[C@@H](N)Cc1c[nH]cn1)[C@@H](C)O)[C@@H](C)O)C(=O)N[C@@H](CO)C(=O)N[C@@H](CCCCN)C(=O)N[C@@H](Cc1ccc(O)cc1)C(=O)N[C@@H](CC(C)C)C(=O)N[C@@H](CC(=O)O)C(=O)NC(C)(C)C(=O)N[C@@H](CCCNC(=N)N)C(=O)N[C@@H](C)C(=O)N[C@@H](C)C(=O)N[C@@H](CCC(N)=O)C(=O)N[C@@H](CC(=O)O)C(=O)N[C@@H](Cc1ccccc1)C(=O)N[C@H](C(=O)N[C@@H](CCC(N)=O)C(=O)N[C@@H](Cc1c[nH]c2ccccc12)C(=O)N[C@@H](CC(C)C)C(=O)N[C@@H](CCCCN)C(=O)N[C@@H](CC(=O)O)C(=O)NCC(=O)N[C@@H](CCCNC(=N)N)C(=O)NCC(N)=O)C(C)C)C(=O)O)C(=O)O
B5: peptide of SEQ ID NO: 22 (peptide)
peptide: H[Aib]QGTFTSDK([γGlu-γGlu-Palmitoyl])SKYLD[Aib]RAAQDFVQWLMDGRG-NH2
modifications: N-terminus assumed
SMILES: CCCCCCCCCCCCCCCC(=O)N[C@@H](CCC(=O)N[C@@H](CCC(=O)NCCCC[C@H](NC(=O)[C@H](CC(=O)O)NC(=O)[C@H](CO)NC(=O)[C@@H](NC(=O)[C@H](Cc1ccccc1)NC(=O)[C@@H](NC(=O)CNC(=O)[C@H](CCC(N)=O)NC(=O)C(C)(C)NC(=O)[C@@H](N)Cc1c[nH]cn1)[C@@H](C)O)[C@@H](C)O)C(=O)N[C@@H](CO)C(=O)N[C@@H](CCCCN)C(=O)N[C@@H](Cc1ccc(O)cc1)C(=O)N[C@@H](CC(C)C)C(=O)N[C@@H](CC(=O)O)C(=O)NC(C)(C)C(=O)N[C@@H](CCCNC(=N)N)C(=O)N[C@@H](C)C(=O)N[C@@H](C)C(=O)N[C@@H](CCC(N)=O)C(=O)N[C@@H](CC(=O)O)C(=O)N[C@@H](Cc1ccccc1)C(=O)N[C@H](C(=O)N[C@@H](CCC(N)=O)C(=O)N[C@@H](Cc1c[nH]c2ccccc12)C(=O)N[C@@H](CC(C)C)C(=O)N[C@@H](CCSC)C(=O)N[C@@H](CC(=O)O)C(=O)NCC(=O)N[C@@H](CCCNC(=N)N)C(=O)NCC(N)=O)C(C)C)C(=O)O)C(=O)O
B6: peptide of SEQ ID NO: 26 (peptide)
peptide: H[Aib]QGTFTSDK([γGlu-γGlu-Palmitoyl])SKYLD[Aib]RAAQDFVQWLK[Aib]GRG-NH2
modifications: N-terminus assumed
SMILES: CCCCCCCCCCCCCCCC(=O)N[C@@H](CCC(=O)N[C@@H](CCC(=O)NCCCC[C@H](NC(=O)[C@H](CC(=O)O)NC(=O)[C@H](CO)NC(=O)[C@@H](NC(=O)[C@H](Cc1ccccc1)NC(=O)[C@@H](NC(=O)CNC(=O)[C@H](CCC(N)=O)NC(=O)C(C)(C)NC(=O)[C@@H](N)Cc1c[nH]cn1)[C@@H](C)O)[C@@H](C)O)C(=O)N[C@@H](CO)C(=O)N[C@@H](CCCCN)C(=O)N[C@@H](Cc1ccc(O)cc1)C(=O)N[C@@H](CC(C)C)C(=O)N[C@@H](CC(=O)O)C(=O)NC(C)(C)C(=O)N[C@@H](CCCNC(=N)N)C(=O)N[C@@H](C)C(=O)N[C@@H](C)C(=O)N[C@@H](CCC(N)=O)C(=O)N[C@@H](CC(=O)O)C(=O)N[C@@H](Cc1ccccc1)C(=O)N[C@H](C(=O)N[C@@H](CCC(N)=O)C(=O)N[C@@H](Cc1c[nH]c2ccccc12)C(=O)N[C@@H](CC(C)C)C(=O)N[C@@H](CCCCN)C(=O)NC(C)(C)C(=O)NCC(=O)N[C@@H](CCCNC(=N)N)C(=O)NCC(N)=O)C(C)C)C(=O)O)C(=O)O
B7: peptide of SEQ ID NO: 25 (peptide)
peptide: H[Aib]QGTFTSDK([γGlu-γGlu-Palmitoyl])SKYLD[Aib]RAAQDFVQWLKDGRP-NH2
modifications: N-terminus assumed
SMILES: CCCCCCCCCCCCCCCC(=O)N[C@@H](CCC(=O)N[C@@H](CCC(=O)NCCCC[C@H](NC(=O)[C@H](CC(=O)O)NC(=O)[C@H](CO)NC(=O)[C@@H](NC(=O)[C@H](Cc1ccccc1)NC(=O)[C@@H](NC(=O)CNC(=O)[C@H](CCC(N)=O)NC(=O)C(C)(C)NC(=O)[C@@H](N)Cc1c[nH]cn1)[C@@H](C)O)[C@@H](C)O)C(=O)N[C@@H](CO)C(=O)N[C@@H](CCCCN)C(=O)N[C@@H](Cc1ccc(O)cc1)C(=O)N[C@@H](CC(C)C)C(=O)N[C@@H](CC(=O)O)C(=O)NC(C)(C)C(=O)N[C@@H](CCCNC(=N)N)C(=O)N[C@@H](C)C(=O)N[C@@H](C)C(=O)N[C@@H](CCC(N)=O)C(=O)N[C@@H](CC(=O)O)C(=O)N[C@@H](Cc1ccccc1)C(=O)N[C@H](C(=O)N[C@@H](CCC(N)=O)C(=O)N[C@@H](Cc1c[nH]c2ccccc12)C(=O)N[C@@H](CC(C)C)C(=O)N[C@@H](CCCCN)C(=O)N[C@@H](CC(=O)O)C(=O)NCC(=O)N[C@@H](CCCNC(=N)N)C(=O)N1CCC[C@H]1C(N)=O)C(C)C)C(=O)O)C(=O)O

These binders were tested against GLP-1 receptor (UniProt P43220 24-463, limits assumed) (assay: cell-based or functional assay).
B1 was tested, and the “EC50 (nM) at GLP-1 receptor” value was 0.004 nM.
With B2 the “EC50 (nM) at GLP-1 receptor” value was 0.004 nM.
For B3, the “EC50 (nM) at GLP-1 receptor” value was 0.009 nM.
In the case of B4, the “EC50 (nM) at GLP-1 receptor” value is reported as 0.004 nM.
B5 was tested, and the “EC50 (nM) at GLP-1 receptor” value was 0.002 nM.
With B6 the “EC50 (nM) at GLP-1 receptor” value was 0.004 nM.
For B7, the “EC50 (nM) at GLP-1 receptor” value was 0.003 nM.

The binders below were run against T1, GIP receptor (assay: cell-based or functional assay).
B1 was tested, and the “EC50 (nM) at GIP receptor” value was 1.38 nM.
B2 was tested, and the “EC50 (nM) at GIP receptor” value was 1.58 nM.
B3 was tested, and the “EC50 (nM) at GIP receptor” value was 4.5 nM.
B4 was tested, and the “EC50 (nM) at GIP receptor” value was 1.46 nM.
With B5 the “EC50 (nM) at GIP receptor” value was 2.37 nM.
B6 was tested, and the “EC50 (nM) at GIP receptor” value was 3.29 nM.
B7 was tested, and the “EC50 (nM) at GIP receptor” value was 2.36 nM.

What follows are binders tested against glucagon receptor (UniProt P47871 26-477, limits assumed) (assay: cell-based or functional assay).
Sequence of glucagon receptor (P47871 26-477 limits assumed): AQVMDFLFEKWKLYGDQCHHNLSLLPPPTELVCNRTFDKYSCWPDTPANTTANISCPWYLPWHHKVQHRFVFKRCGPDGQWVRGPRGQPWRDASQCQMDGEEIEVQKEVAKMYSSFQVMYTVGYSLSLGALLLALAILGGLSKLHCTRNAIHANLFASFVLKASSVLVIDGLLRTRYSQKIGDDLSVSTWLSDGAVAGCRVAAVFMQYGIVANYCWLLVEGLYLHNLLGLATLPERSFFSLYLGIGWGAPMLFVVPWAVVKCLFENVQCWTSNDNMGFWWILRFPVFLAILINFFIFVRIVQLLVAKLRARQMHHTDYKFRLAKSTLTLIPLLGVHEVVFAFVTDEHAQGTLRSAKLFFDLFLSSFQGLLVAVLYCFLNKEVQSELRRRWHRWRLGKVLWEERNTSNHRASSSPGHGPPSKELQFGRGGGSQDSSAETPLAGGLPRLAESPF
With B1 the “EC50 (nM) at glucagon receptor” value was 0.006 nM.
B2 was tested, and the “EC50 (nM) at glucagon receptor” value was 0.023 nM.
With B3 the “EC50 (nM) at glucagon receptor” value was 0.005 nM.
For B4, the “EC50 (nM) at glucagon receptor” value was 0.021 nM.
In the case of B5, the “EC50 (nM) at glucagon receptor” value is reported as 0.005 nM.
In the case of B6, the “EC50 (nM) at glucagon receptor” value is reported as 0.106 nM.
With B7 the “EC50 (nM) at glucagon receptor” value was 0.035 nM.
